From US7670806B2, “ADP-ribosyl acceptor hydrolase 3 (ARH3) polypeptides and methods of use” (The United States of America as represented by the …, priority 2005, dated 2010)
Several values for one entry are separate records, joined by “and”; a condition that tells them apart may be missing. Equal values may be shown once.

Key:
[1] = test system: NIH3T3 cells; assay: Effect of H2O2 on ARH3-transfected NIH3T3 cells (Cell-Counting Kit-8); assay type: cell-based; conditions: stably ARH3 cDNA-transfected NIH3T3 cells vs empty vector; H2O2 for 24 hours
Procedure: FIG. 16 is a line graph showing the effect of H2O2 on ARH3-transfected NIH3T3 cells. NIH3T3 cells were transfected with ARH3 cDNA using Lipofectamin transfection reagent (INVITROGEN™). After transfection, the cells were cultured and exposed to 200 μg/ml of Hygromycin G (INVITROGEN™) for 3-4 weeks to select stably transfected clones. Positive clones derived from single Hygromycin G-resistant cells were then isolated by cloning rings and further grown under the same conditions. As controls, NIH3T3 cells were transfected with an empty pcDNA3.1 vector (INVITROGEN™) and subjected to the same selection and cloning procedures as described above. The cells were plated in 96-well plates at 1×10^4 cells/well, and incubated for 24 h at 37° C. in a humidified incubator. The cells were then challenged at the indicated concentrations of H2O2 for 24 hours. Cell survival was determined by using Cell-Counting Kit-8 (Dojindo). The experiments were repeated twice with similar results.
To test the role of ARH3 in the cellular response to oxidative stress, NIH3T3 cells were transfected with ARH3 cDNA using Lipofectamin transfection reagent (Invitrogen). […]
The cells were plated in 96-well plates at 1×10^4 cells/well, and incubated for 24 hours at 37° C. in a humidified incubator. […] Cell viability was determined by using Cell-Counting Kit-8 (Dojindo). […]

[2] = Hydrolysis of O-acetyl-[14C]ADP-ribose by ARH proteins / PARG (RP-HPLC); assay type: biochemical
Procedure: FIG. 13A is a graph illustrating the results from incubation of 1.5 pmol of mouse ARH3 with or without 5 mM DTT and/or 10 mM MgCl2 as described in FIG. 11B with incubation for 1 h at 30° C. FIG. 13B is a graph illustrating the results from incubation of 1.5 pmol of wild type or mutant human (D77-78) ARH3 or 20 mU of PARG for 2 h at 30° C. *D77,78, assays incubated with 15 pmol of mutant human ARH3 (D77, D78).
FIG. 14A is a graph of the results from incubation with the indicated amount of mouse ARH1, 2, or 3 for 2 h at 30° C. FIG. 14B is a graph of the results from incubation with 230 pmol of mouse ARH1 at 30° C. for the indicated time.
Mouse ARH3 (2 pmol) and 2.5 μM O-acetyl-[^14C]ADP-ribose (5,000 cpm) in 200 μl of buffer containing 50 mM potassium phosphate (pH 7.0), 10 mM MgCl2 and 5 mM DTT were incubated for 2 h at 30° C., before separation of substrate and products using RP-HPLC as described below.
Hydrolysis of O-acetyl-[^14C]ADP-ribose catalyzed by ARH3. Assays containing the indicated concentration of O-acetyl-[^14C]-ADP-ribose (0.1 to 2 nmol, 1,000 to 20,000 cpm) and 1.5 pmol of ARH3 in 200 μl of buffer (50 mM KPO4 (pH 7.0), 10 mM MgCl2, 5 mM DTT) were incubated at 30° C. for 20 min. Substrate and products were separated using RP-HPLC. Amounts of product were corrected for ADP-ribose produced in the absence of ARH3 before calculation of hydrolysis rates.
Because O-acetyl-ADP-ribose was known to be hydrolyzed at alkaline pH Tanny and Moazed (2001), Proc Natl Acad Sci USA. 98(2):415-20, Epub Dec. 26, 2000), it was generated at pH 7.0 in the presence of [^14C-adenine] β-NAD, Sir2, and acetylated histone H3 peptide (FIG. 11A), and the products of Sir2 and ARH3 were analyzed using reverse-phase HPLC at the same pH (FIGS. 11A,B). The products of the ARH3-catalyzed reaction were also analyzed by high resolution-polyacrylamide gel electrophoresis (FIG. 11C). O-acetyl-[^14C]ADP-ribose hydrolase activity was time and ARH3 dependent (FIG. 12) and essentially completely dependent on Mg^2+ (FIG. 13A).
O-acetyl-ADP-ribose hydrolysis by ARH1 was time and ARH1 dependent (FIG. 14b).

[3] = Poly(ADP-ribose) hydrolysis (autoradiography, high resolution PAGE, HPLC); assay type: biochemical
Procedure: Poly(ADP-ribose) hydrolysis by autoradiography. [^32P]poly(ADP-ribose)PARP (500 ng of PARP with poly(ADP-ribose) was incubated (37° C., 2 h) with 2 μM ARH in 25 μl of 50 mM potassium phosphate buffer, pH 7.5, with or without 10 mM MgCl2 and/or 5 mM DTT. Reactions were stopped by adding 6 μl of 5× Laemmli buffer. Samples (20 μl) of proteins were separated by SDS-PAGE in 4-20% gels and transferred to nitrocellulose membranes that were exposed to X-ray film (Kodak) for 10 h.
Hydrolysis of poly(ADP-ribose) by PARG and ARH3. Purified [^32P] poly(ADP-ribose) (5.5×10^5 cpm, ˜300 nM ADP-ribose) was incubated for the indicated time at 37° C. in 25 μl of 50 mM potassium phosphate, pH 7.5, containing 10 mM MgCl2 and 5 mM DTT with enzyme or other additions as indicated and terminated by addition of 25 μl of 2× electrophoresis buffer (Invitrogen). [^32P]AMP was generated by incubation (37° C., 3 h) of 10 μM [^32P] NAD (10 μCi/reaction) with pyrophosphatase (40 units/mg from SIGMA, 1 mg/ml) in 25 μl of 50 mM KPO4, pH 7.5, and 10 mM MgCl2. [^32P] ADP-ribose was generated in a 25 μl mixture containing 50 mM KPO4, pH 7.5, 25 μg of activated CTA, 10 μM [^32P] NAD (10 μCi/reaction), 10 mM MgCl2, and 5 mM DTT, which was incubated at 30° C. overnight. [^32P] phosphoribosyl-AMP was generated by incubation (37° C., 3 h) of [^32P]poly(ADP-ribose) (5.5×10^5 cpm, ˜300 nM ADP-ribose) with Crotalus adamanteus phosphodiesterase (10 mU/reaction), 25 μl of 50 mM KPO4, pH 7.5, 10 mM MgCl2, and 5 mM DTT. Identities of AMP and ADP-ribose standards were confirmed by HPLC on C18 and SAX columns respectively.
High resolution Polyacrylamide Gel Electrophoresis (PAGE). Polyacrylamide (20%) gels (20×20×0.15 cm) containing polyacrylamide and bis(acrylamide), in a ratio of 19:1, 100 mM Tris-borate, pH 8.3, 2 mM EDTA, 4.4 mM ammonium persulfate, and 3.4 mM TEMED with electrophoresis carried out for 2 h at 400V with 50 mM Tris-borate, pH 8.3, 1 mM EDTA, before application of samples (15 μl) were used for analysis of poly(ADP-ribose) degradation. Subsequent electrophoresis at 400V was stopped when bromophenol blue (BPB) had moved 9 cm from the origin. Gels were exposed to X-ray films (Kodak).
HPLC analysis. HPLC, Hewlett-Packard series 1100 equipped with a diode-array spectrophotometric detector set at 254 nm, was used for separation of reaction products. For anion exchange perfusion chromatography, Zorbax SAX column (4.6×250 mm; DuPont, Wilmington Del.) was washed with 20 mM potassium phosphate, pH 4.5, for 30 min, followed by a linear gradient of 0-1M NaCl in the same buffer for 10 min (30-40 min), then same buffer with 1M NaCl for 10 min (40-50 min) at a flow rate of 1 ml/min. Nicotinamide was eluted at 3 min, NAD at 10 min, and ADP-ribose at 40 min. For reverse phase, Discovery C18 column (4.6×250 mm; SUPELCO, Bellefonte Pa.) was used. Samples were separated isocratically with 100 mM potassium phosphate, pH 6.0 containing 7% methanol at a same flow rate of 1 ml/min. ADP-ribose was eluted at 6 min, NAD at 8 min, nicotinamide 9 min.
Poly(ADP-ribose)PARP was used as substrate to assay potential poly(ADP-ribose) hydrolase activities of recombinant ARH1, 2 or 3. Products were identified by autoradiography and HPLC. Fractions (1 ml) were collected for liquid scintillation counting to quantify [^14C]ADP-ribose, which was eluted in fractions from 34 min to 43 min. Because ARH1 activity may require both DTT and Mg^2+, depending on species (Takada et al. (1993) J. Biol. Chem. 268:17837-17843; Moss et al. (1992) J. Biol. Chem. 267:10481-10488), these reactions were performed with or without 10 mM MgCl2, and/or 5 mM DTT. […] Degradation of [^32P]poly(ADP-ribose) by ARH3 was enhanced by 10 mM MgCl2 (FIG. 4A). Data were similar with mouse ARH3.
Samples of [^14C] ADP-ribosylated PARP (250 ng, 15,000 cpm, ˜850 nM ADP-ribose) were incubated at 37° C. (total volume, 100 μl) with human ARH3 as indicated. […]

[4] = ADP-ribose binding assay; conditions: 1 μM ARH3, 3 μM [14C]ADP-ribose, 30° C., 16 h
Procedure: ADP-ribose binding assay. [^14C]ADP-ribose was generated by incubation overnight at 30° C. of 80 μM (10 μCi) [adenine-U-^14C]NAD with 50 μl of RT6.2 solution (5 nmol/h NADase activity; gift from Dr. Sunhee Park, NHLBI, National Institutes of Health, Bethesda, Md.) in 250 μl of 50 mM potassium phosphate, pH 7.5, and purified by HPLC using Zorbax Sax column as described above. [^14C]ADP-ribose, eluted at 40 min, was stored at −20° C.
To assess protein binding, 1 μM human wild type or D77N/D78N mutant ARH3 was incubated (30° C., 16 h) with 3 μM [^14C]ADP-ribose in 50 mM potassium phosphate buffer, pH 7.5, without or with 10 mM MgCl2, and/or 5 mM DTT (total volume 100 μl). A sample (90 μl) was applied to a column (0.5×4 cm) of Affi-Gel boronate (100 mg, Bio-Rad) which was equilibrated with 0.1 M glycine, pH 9.0, containing 0.1 M NaCl, with or without 10 mM MgCl2, and/or 5 mM DTT, and eluted with five 1-ml portions of the same solution. The total eluate, containing ARH with bound ADP-ribose was collected for liquid scintillation counting.
After incubation of wild-type or mutant ARH3 (1 μM) with [^14C]ADP-ribose (3 μM) (30° C., 16 h) without or with 10 mM MgCl2 and/or 5 mM DTT (total volume 100 μl), unbound ADP-ribose was removed by binding to Affi-gel boronate (Bio-Rad), and ARH3 with ADP-ribose bound, was collected for radioassay. […]

B1: ARH3: 39-kDa recombinant protein having both poly(ADP-ribose) glycohydrolase activity and O-acetyl-ADP-ribose hydrolase activity (protein, listed as Homo sapiens)
chain: MAAAAMAAAAGGGAGAARSLSRFRGCLAGALLGDCVGSFYEAHDTVDLTSVLRHVQSLEPDPGTPGSERTEALYYTDDTAMARALVQSLLAKEAFDEVDMAHRFAQEYKKDPDRGYGAGVVTVFKKLLNPKCRDVFEPARAQFNGKGSYGNGGAMRVAGISLAYSSVQDVQKFARLSAQLTHASSLGYNGAILQALAVHLALQGESSSEHFLKQLLGHMEDLEGDAQSVLDARELGMEERPYSSRLKKIGELLDQASVTREEVVSELGNGIAAFESVPTAIYCFLRCMEPDPEIPSAFNSLQRTLIYSISLGGDTDTIATMAGAIAGAYYGMDQVPESWQQSCEGYEETDILAQSLHRVFQKS
Which “Cell viability after H2O2 challenge” value [1] does the source give for B1 here?
The value was “significantly reduced the toxic effect of H2O2”.

What about the Km ([2]; 1.5 pmol ARH3, 30° C., 20 min, pH 7.0, 10 mM MgCl2, 5 mM DTT) of the same molecule?
Its Km is 7.4 ± 0.7 µM.

And the “Vmax, O-acetyl-ADP-ribose hydrolysis” value ([2]; 1.5 pmol ARH3, 30° C., 20 min, pH 7.0, 10 mM MgCl2, 5 mM DTT, means ±½ range of duplicates)?
Its value is 173 ± 8.4 nmol/min/mg.

What about the “kcat, O-acetyl-ADP-ribose hydrolysis” value ([2]; comparison with mNudT5) of the same molecule?
The value was 0.0052 ± 0.0033 s⁻¹.

And the “Rate of O-acetyl-ADP-ribose hydrolysis relative to that of ARH1” value ([2]; times / -fold the rate with ARH1, recombinant mouse proteins, 2 h at 30° C.)?
The value was 250 and > 250.

B2: human ARH3: human ARH3 amino acid sequence SEQ ID NO: 2, synthesized as GST-fusion product in E. coli (protein, listed as Homo sapiens)
chain: B1 chain
modifications: GST fusion
With B2 as the molecule, how does the “Substrate remaining, [14C]poly(ADP-ribose)PARP” value ([3]; 40 nM hydrolase, 60 min, 37° C.) read?
The value was roughly 75%.

And the “Release of [14C]ADP-ribose from [14C]poly(ADP-ribose)PARP relative to wild-type ARH3” value ([3]; 50 nM human ARH3 (wild-type or mutant), ~2 μM ADP-ribose, HPLC C18)?
The value was 100%.

What about the “Poly(ADP-ribose) hydrolysis (in words)” value ([3]; [32P]poly(ADP-ribose) or poly(ADP-ribose)PARP, 37° C., autoradiography / PAGE / HPLC) of the same molecule?
Its value is “hydrolyzed”.

What about the “[14C]ADP-ribose binding” value [4] of the same molecule?
The value was “similar”.
